# Measured values reported in paper PMC3393671, “A Toxoplasma gondii Pseudokinase Inhibits Host IRG Resistance Proteins” (PLoS Biology, 2012).
# T1: Irga6 (GST tag cleaved off) (mouse, UniProt Q9QZ85 1-411)
# T1 construct: Irga6, mouse IRG protein, cleaved from the GST fusion as a near-native protein; Lacks the N-terminal myristoylation; In one NMR experiment [13C]-Met labelled; also called wt Irga6; purified Irga6; source: E. coli BL21 (pGEX-4T-2), purified (Glutathione Sepharose, thrombin cleavage, Superdex 75); not shown: GST, N-terminal, cleaved
# T1 sequence: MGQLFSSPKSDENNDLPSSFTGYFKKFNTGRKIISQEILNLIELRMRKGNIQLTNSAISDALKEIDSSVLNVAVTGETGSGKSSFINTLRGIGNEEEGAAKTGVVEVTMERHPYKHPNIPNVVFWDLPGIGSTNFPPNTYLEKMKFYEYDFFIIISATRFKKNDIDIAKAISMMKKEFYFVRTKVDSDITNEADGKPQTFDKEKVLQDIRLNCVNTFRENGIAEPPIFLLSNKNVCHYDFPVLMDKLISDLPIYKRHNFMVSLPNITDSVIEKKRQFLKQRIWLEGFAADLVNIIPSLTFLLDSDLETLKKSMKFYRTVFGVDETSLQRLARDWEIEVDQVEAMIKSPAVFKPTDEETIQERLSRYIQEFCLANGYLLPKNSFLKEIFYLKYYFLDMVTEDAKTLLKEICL
# B1: ROP5BI pseudokinase domain (domain or fragment, Toxoplasma gondii (type I))
# chain: EAGDSFMRDLLKREEELIGYCREEALKEPAAMVEAVTATVWPQNAETTVDSLLSQGERKLKLVEPLRVGDRSVVFLVRDVERLEDFALKVFTMGAENSRSELERLHEATFAAARLLGESPEEARDRRRLLLPSDAVAVQSQPPFAQLSPGQDDYAVANYLLLMPAASVDLELLFSTLDFVYVFRGDEGILALHILTAQLIRLAANLQSKGLVHGHFTPDNLFIMPDGRLMLGDVSALWKVGTRGPASSVPVTYAPREFLNASTATFTHALNAWQLGLSIYRVWCLFLPFGLVTPGIKGSWKRPSLRVPGTDSLAFGSCTPLPDFVKTLIGRFLNFDRRRRLLPLEAMETPEFLQLQNEISSSLSTGQ
# notes: pseudokinase domain of ROP5 isoform B of a type I T. gondii strain (ROP5BI); In one NMR experiment [13C]-labelled on the Cε of methionines; also called purified pseudokinase domain protein ROP5BI; source: purified
# Molecular target: T1, Irga6 (GST tag cleaved off)
# Assay: NMR titration; 13C-1H HSQC of [13C]-Met labelled ROP5BI without or with unlabeled Irga6; 30°C, 800 MHz
# Details: both partners purified
binder,measurement,value
B1,binding result,binds
